Consider one molecule from patent US20220403048A1, “BINDING MOLECULES TO ARGINASE II [ARG2]” (Cancer Research Technology Limited, priority 2019, published 2022).

The target in one test is T1, human ARG2 (Homo sapiens, UniProt P78540, E275H/R327K).
T1 construct: His10 (after a GGG linker) (C); made in house; host or cells: E. coli BL21 (DE3)
T1 sequence (P78540 23-354 E275H/R327K): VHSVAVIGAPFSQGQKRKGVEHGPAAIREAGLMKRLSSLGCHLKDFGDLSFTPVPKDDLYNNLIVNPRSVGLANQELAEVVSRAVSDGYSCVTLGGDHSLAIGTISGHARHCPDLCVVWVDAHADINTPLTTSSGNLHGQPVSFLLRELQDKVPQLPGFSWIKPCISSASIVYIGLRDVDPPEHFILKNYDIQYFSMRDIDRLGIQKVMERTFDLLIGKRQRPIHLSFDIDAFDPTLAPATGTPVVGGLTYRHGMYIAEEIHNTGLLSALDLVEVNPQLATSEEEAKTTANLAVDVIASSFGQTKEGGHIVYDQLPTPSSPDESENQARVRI
Nature of the test: Bio-Layer Interferometry (OctetRED) binding kinetics, human ARG2. The settings on record: Fab as analyte; streptavidin capture; analyte 1.8 to 120 nM; affinity-matured antibodies. An excerpt: (§1) The OctetRED (Pall ForteBio) instrument was used to assess the kinetic parameters of the interactions between C0020187 and recombinantly produced human ARG2, cynomolgus ARG2 and human ARG1. The Octet biosensor uses an optical analytical technique that analyses the interference pattern of white light reflected from two surfaces: a layer of immobilised protein on the sensor tip, and an internal reference layer. Any changes in binding at the biosensor tip result in a shift in interference pattern, which can be measured in real time. Molecules associating with or dissociating from ligands at the biosensor tip shift the interference pattern and generate a response on the Octet system which is recorded by the acquisition software.
(§2) Typically, a defined concentration of the analyte species is brought into contact with the coupled ligand and any binding is detected as an increased in signal (association phase). This is followed by a period of buffer rinse, during which dissociation of the analyte species from the surface immobilised ligand can be observed as a decrease in signal (dissociation phase). Repetition of this with a range of analyte concentrations provides data for the analysis of binding kinetics.
(§3) An Octet Kinetics Buffer (PBS containing 0.01% BSA and 0.002% Tween20) is typically used as the diluent buffer for the analyte samples and as the flow buffer during the dissociation phase. The experimental data is recorded over time as shift in interference pattern (nm) over time, which is directly proportional to the optical thickness at the biosensor tip, which in turn is an approximate measure of the mass of analyte bound. The proprietary Octet Data Analysis software package can then be used to process data and fit binding models to the data sets. Returned association (ka, M^−1 s^−1) and dissociation (kd, s^−1) rate constants allow calculation of dissociation (KD, M) affinity constants.
(§4) The affinity of binding between the Fab of C0020187 and human ARG2, cynomolgus ARG2 and human ARG1 was estimated using assays in which the biotinylated ARG antigen was captured on a streptavidin sensor tip. A fresh sensor tip was used for each measurement and no regeneration was used. A series of dilutions of the C0020187 Fab (3.25-240 nM) were individually placed in contact with the ligand surface for a sufficient amount of time to observe sensorgrams that could be fitted to an appropriate binding model with confidence (typically 5 minutes), followed by an appropriate length of dissociation time (typically 10 minutes). Blank reference (0 nM Fab) data were subtracted from each dataset to reduce the impact of any buffer artefacts or non-specific binding effects. An appropriate binding model was then fitted simultaneously to the data from each analyte titration using the Octet Evaluation software.
(§5) Example results for C0020187 are shown in Table 9, showing the association rate constants (ka), dissociation rate constants (kd) and dissociation constants (KD). These parameters were derived from a 1:1 binding fit to the data.
(§6) The affinities of the affinity-matured antibodies to human ARG2 were measured on the OctetRED system as described in section 1.15 using the streptavidin capture method. Typically, an analyte titration range of 1.8 to 120 nM was used.
The affinities of the second-generation antibodies to human ARG2 were measured on the OctetRED system. A screening assay which stably captures His-tagged ARG2 as the ligand on an anti-His surface was utilised to screen the second-generation candidates as Fabs at an analyte range of 1.8 to 120 nM, with an association time of 5 minutes and a dissociation time of 10 minutes. Sensors were regenerated using 10 mM glycine pH 1.5 after each cycle. Based on this assay, six candidates with estimated affinities in the sub-nanomolar range were identified, and they were further profiled using an extended assay which is more suitable for antibodies of high affinities. […]
Background: Biolayer interferometry detects binding as a change in optical thickness at a sensor tip.

In a further test the test system is cynomolgus ARG2. Briefly: Bio-Layer Interferometry (OctetRED) binding kinetics, cynomolgus ARG2. Conditions: Fab as analyte; cyno ARG2 ligand; affinity-matured antibodies.
Source text: as §1, §2, §3, §4, §5, §6
The affinities of some of these antibodies to cynomolgus ARG2 were determined using the same assay, and the derived kinetic parameters are shown in Table 21.

The next test concerns the target T2, human ARG1 (Homo sapiens, UniProt P05089).
T2 construct: Avi tag (N); His10 (after a GGG linker) (C); made in house; host or cells: E. coli BL21 (DE3)
T2 sequence (P05089 with tags, fused parts or gaps): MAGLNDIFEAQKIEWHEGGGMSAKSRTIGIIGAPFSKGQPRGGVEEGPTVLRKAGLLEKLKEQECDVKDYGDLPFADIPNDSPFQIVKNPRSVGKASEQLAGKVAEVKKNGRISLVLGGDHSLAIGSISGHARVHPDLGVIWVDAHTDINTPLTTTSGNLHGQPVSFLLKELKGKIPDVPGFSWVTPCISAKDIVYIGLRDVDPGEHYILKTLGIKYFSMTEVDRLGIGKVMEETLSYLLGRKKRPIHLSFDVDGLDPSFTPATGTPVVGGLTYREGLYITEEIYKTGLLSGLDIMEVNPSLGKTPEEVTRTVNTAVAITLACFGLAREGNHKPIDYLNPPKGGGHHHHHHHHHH
Briefly: Bio-Layer Interferometry (OctetRED) binding, human ARG1. The settings on record: Fab analyte up to 120 nM, screening assay on anti-His surface. The procedure: as §4
The binding of affinity-matured antibodies to human ARG1 was also tested on the OctetRED system using a screening assay which stably captures […] as the ligand on an anti-His surface. The Fabs were typically tested in an analyte range of 1.8 to 120 nM, with an association time of 5 minutes and a dissociation time of 10 minutes. Sensors were regenerated using 10 mM glycine pH 1.5 after each cycle.
Binding of the second-generation antibodies to human ARG was also tested on the OctetRED system using a screening assay which stably captures […] as the ligand on an anti-His surface. The Fabs were tested as analyte up to 120 nM, with an association time of 5 minutes and a dissociation time of 10 minutes. Sensors were regenerated using 10 mM glycine pH 1.5 after each cycle.

Sequence of cynomolgus ARG2 (as listed by the source): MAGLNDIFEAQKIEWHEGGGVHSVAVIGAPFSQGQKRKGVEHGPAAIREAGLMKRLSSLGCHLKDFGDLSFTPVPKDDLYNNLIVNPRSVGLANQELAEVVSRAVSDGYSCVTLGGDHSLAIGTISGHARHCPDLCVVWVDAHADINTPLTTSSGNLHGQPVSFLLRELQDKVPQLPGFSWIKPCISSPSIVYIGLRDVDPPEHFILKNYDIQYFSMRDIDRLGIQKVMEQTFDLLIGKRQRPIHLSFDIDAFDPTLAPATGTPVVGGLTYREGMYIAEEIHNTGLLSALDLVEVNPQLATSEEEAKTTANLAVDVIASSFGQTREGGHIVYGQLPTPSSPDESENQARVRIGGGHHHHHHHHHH

B1: C0021128: anti-ARG2 antibody, VH SEQ ID NO: 162, VL SEQ ID NO: 167 (antibody, listed as Homo sapiens, V domains shown)
VH: EVQLLESGGGLVQPGGSLRLSCAASGFTFQYEVAAWVRQAPGKGLEWVSAISGPIPKGYYADSVKGRFTISRDNSKNTLYLQMNSLRAEDTAVYYCARLRADLGLYMDLWGRGTLVTVSS
VL: QSVLTQPPSVSAAPGQKVTISCSGSSSNIGNHYVSWYQQLPGTAPKLLIYDNAIESSGIPDRFSGSKSGTSATLGITGLQTGDGADYYCGTWDSNLSALVFGGGTKLTVL
modifications: C0021128
For the molecule B1, in the test with human ARG2, the ka turned out to be 266000 M⁻¹ s⁻¹ and the kd is 0.000674 s⁻¹. In the test with cynomolgus ARG2, this molecule returned a ka of 437000 M⁻¹ s⁻¹ and a kd of 0.000771 s⁻¹. The “Results, binding to human ARG1 (BLI)” value with human ARG1 was “No binding observed”.
